For data set [1], the target named is His101 (UniProt position 101, RLRALHMKEHP). In words: NMR. The settings on record: 293 K per the general NMR methods; not restated for the pH titration; 150 mM ionic strength; not given for the titration ("All buffers were controlled to 150 mM ionic strength"); the standard NMR buffer is 20 mM Tris, 135 mM KCl, 15 mM NaCl, pH 7.3; bound to specific FGF4 dsDNA (13-mer containing the TTGT motif).

For data set [2], the target named is His67 (UniProt position 67, ENPKMHNSEIS). In words: NMR. Particulars: 293 K per the general NMR methods, not restated for the pH titration, 150 mM ionic strength, not given for the titration ("All buffers were controlled to 150 mM ionic strength"), the standard NMR buffer is 20 mM Tris, 135 mM KCl, 15 mM NaCl, pH 7.3.

1 substance from publication PMC12585912 can be followed below.

By pKa is commonly meant the pH at which an ionisable group is half protonated. A low value points to a stronger acid or weaker base.

Transcription factor SOX-2, extended DNA-binding (HMG) domain, Sox2 31-127 (Homo sapiens), sequence (chain, as listed by the source): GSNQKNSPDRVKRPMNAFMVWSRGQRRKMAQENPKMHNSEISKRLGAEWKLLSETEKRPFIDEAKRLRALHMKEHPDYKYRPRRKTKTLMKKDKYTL

Consider “Transcription factor SOX-2, extended DNA-binding (HMG) domain, Sox2 31-127 (Homo sapiens)”, for which the pKa in data set [1] stood at 4.1; in data set [2] (bound to specific FGF4 dsDNA (13-mer containing the TTGT motif)), 6.25; in data set [2] (free Sox2 31-127, folded), 5.76.
